No end group written: not given here. Me3 = trimethyl (lysine)
Key:
[1] = target: T1, PZP domain of JADE1 (JADE1PZP), wild type (human, UniProt Q6IE81 201-373); experiment: NMR titration
[2] = target: T1, PZP domain of JADE1 (JADE1PZP), wild …; experiment: other fluorescence titration
E215K mutant of JADE1PZP = E215K mutant of JADE1PZP (human, UniProt Q6IE81 201-373, E215K); experiment: other fluorescence titration
Chain of E215K mutant of JADE1PZP (Q6IE81 201-373 E215K): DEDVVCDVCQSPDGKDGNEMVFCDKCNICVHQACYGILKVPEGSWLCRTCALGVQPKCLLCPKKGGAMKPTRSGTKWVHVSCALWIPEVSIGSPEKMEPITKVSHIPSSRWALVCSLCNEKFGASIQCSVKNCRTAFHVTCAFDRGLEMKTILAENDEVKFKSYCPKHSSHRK

T1 sequence (Q6IE81 201-373): as the sequence (Q6IE81 201-373 E215K) above, with K15E counted along it

ARTK(Me3)QTARKSTG (peptide, UniProt P68431 2-13, looked up) [H3K4me3_(1–12) peptide] gave a Kd [1] of 3000 µM.

With ARTKQTARKSTG (peptide, UniProt P68431 2-13, looked up) [H3_(1–12) peptide (residues 1–12 of H3)] the Kd [2] was 0.9 µM and the “fold decrease in binding affinity against wild type JADE1PZP” value (E215K mutant of JADE1PZP) was 3 fold.

— PMC11320721 (Nature structural & molecular biology, 2024)
